Target: NLuc-NS2B-E66stop (DENV2)
Assay: split reporter

Substance: MBP-NS3 (from UniProt P29990 1476-2093) (enzyme)
- IC50: 2500 nM

— paper PMC7269092
